Assay results taken from paper PMC12084609, “Structural insights into small-molecule agonist recognition and activation of complement receptor C3aR” (The EMBO Journal, 2025).
Residue numbers refer to the chain shown, from its start. Values joined by “and” are separate entries in the source; they are usually repeats but may differ in a detail not shown here. Identical values can stand only once.

Key:
Assay type in all cases: cell-based
[1] = biological target: T1, C3aR I102^3.32A/I421^7.39A (Homo sapiens, UniProt Q16581, I102A/I421A); assay: GloSensor-based cAMP assay, C3aR double mutant I102A/I421A; conditions: for cAMP response (% Forskolin): single replicates
T1 construct: expressed in transfected cells; host or cells: HEK293T
T1 sequence (Q16581 1-482 I102A/I421A): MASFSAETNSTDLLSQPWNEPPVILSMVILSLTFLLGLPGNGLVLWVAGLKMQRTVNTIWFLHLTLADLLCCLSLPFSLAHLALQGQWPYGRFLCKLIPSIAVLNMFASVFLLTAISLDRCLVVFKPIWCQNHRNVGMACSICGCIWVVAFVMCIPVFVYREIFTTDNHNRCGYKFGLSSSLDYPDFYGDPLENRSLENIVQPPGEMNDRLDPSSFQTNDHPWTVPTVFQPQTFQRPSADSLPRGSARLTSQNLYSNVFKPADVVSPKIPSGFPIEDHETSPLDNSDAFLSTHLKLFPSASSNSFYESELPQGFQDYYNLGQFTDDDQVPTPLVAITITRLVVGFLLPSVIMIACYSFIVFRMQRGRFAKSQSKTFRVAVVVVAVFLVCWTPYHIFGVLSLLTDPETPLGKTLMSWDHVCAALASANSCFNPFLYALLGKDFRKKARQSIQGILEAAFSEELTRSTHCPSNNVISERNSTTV
Description: (§1) HEK293T cells were seeded on 6-well plates (NEST) and transfected with pGlosensor™-22F plasmids (Promega) and pcDNA3.1 plasmids encoding C3aR or its mutants an with N-terminal FLAG tag. After 48 h, cells were detached with Accutase solution (Sigma-Aldrich) and washed with PBS, and resuspended in assay buffer (CO2-independent medium with 0.5 mg mL^−1D-luciferin). 100,000–200,000 cells were seeded on 96-well white bottom plates (SPL) and incubated at 37 °C for 45 min followed by 45 min incubation at room temperature. After 90 min of incubation, basal luminescence signals were recorded. In total, 25 μl of test ligand with various concentrations and 1 μM Forskolin (Sigma-Aldrich) were treated to the cells and luminescence signals were measured by Tristar 2 LB 942 multimode reader (Berthold). […] Relative luminescence unit (%) was calculated with the signal of wells treated with vehicle as 0% and the signal of wells treated with 1 μM Forskolin as 100% (DiRaddo et al, [2014]). Nonlinear regression was performed using a three-parameter logistic equation.

C3aR P99^3.29A = biological target: T2, C3aR P99^3.29A (Homo sapiens, UniProt Q16581, P99A); assay: GloSensor-based cAMP assay, C3aR mutant P99A; conditions: for cAMP response (% Forskolin): P993.29A, single replicates
T2 construct: expressed in transfected cells; host or cells: HEK293T
T2 sequence (Q16581 1-482 P99A): T1 sequence (Q16581 1-482 I102A/I421A) with P99A, A102I, A421I
Description: as §1

C3aR R340^5.42A = biological target: T3, C3aR R340^5.42A (Homo sapiens, UniProt Q16581, R340A); assay: GloSensor-based cAMP assay, C3aR mutant R340A; conditions: for cAMP response (% Forskolin): R3405.42A, single replicates
T3 construct: expressed in transfected cells; host or cells: HEK293T
T3 sequence (Q16581 1-482 R340A): T1 sequence (Q16581 1-482 I102A/I421A) with A102I, R340A, A421I
Description: as §1

Substance: C3a: anaphylatoxin C3a, natural peptide ligand of C3aR (a 77-amino acid peptide), Sigma-Aldrich
- cAMP response (% Forskolin) ([1]; I102A/I421A, Log[C3a (M)] -7): 60.33 % Forskolin and 51.98 % Forskolin and 58.06 % Forskolin
- cAMP response (% Forskolin) ([1]; I102A/I421A, Log[C3a (M)] -8): 94.58 % Forskolin and 89.45 % Forskolin and 91.46 % Forskolin
- cAMP response (% Forskolin) ([1]; I102A/I421A, Log[C3a (M)] -9): 96.12 % Forskolin and 94.02 % Forskolin and 96.29 % Forskolin
- cAMP response (% Forskolin) ([1]; I102A/I421A, Log[C3a (M)] -10): 100.40 % Forskolin and 98.48 % Forskolin and 97.75 % Forskolin
- cAMP response (% Forskolin) ([1]; I102A/I421A, Log[C3a (M)] -11): 101.76 % Forskolin and 98.75 % Forskolin and 98.69 % Forskolin
- cAMP response (% Forskolin) ([1]; I102A/I421A, Log[C3a (M)] -12): 99.03 % Forskolin and 95.31 % Forskolin and 95.64 % Forskolin
- ΔpIC50 ± SE of Diff. ([1]; I102^3.32A/I421^7.39A relative to WT C3aR): -0.51 ± 0.05
- IC50 ([1]; I102^3.32A/I421^7.39A, dose-response plot, read-out: IC50): 10.1 nM
- pIC50 (Replicate) ([1]; I102^3.32A/I421^7.39A, individual replicates): 8.09 and 7.94 and 7.95
- pIC50 ± SEM (Mean) ([1]; I102^3.32A/I421^7.39A, mean of independent experiments): 7.99
- cAMP response (% Forskolin) ([1]; I1023.32A/I4217.39A, Log[C3a (M)] -7): 17.14 % Forskolin and 17.92 % Forskolin and 21.78 % Forskolin
- cAMP response (% Forskolin) ([1]; I1023.32A/I4217.39A, Log[C3a (M)] -8): 50.03 % Forskolin and 58.06 % Forskolin and 57.92 % Forskolin
- cAMP response (% Forskolin) ([1]; I1023.32A/I4217.39A, Log[C3a (M)] -9): 101.91 % Forskolin and 104.37 % Forskolin and 102.64 % Forskolin
- cAMP response (% Forskolin) ([1]; I1023.32A/I4217.39A, Log[C3a (M)] -10): 108.19 % Forskolin and 105.12 % Forskolin and 103.38 % Forskolin
- cAMP response (% Forskolin) ([1]; I1023.32A/I4217.39A, Log[C3a (M)] -11): 107.31 % Forskolin and 106.77 % Forskolin and 101.12 % Forskolin
- cAMP response (% Forskolin) ([1]; I1023.32A/I4217.39A, Log[C3a (M)] -12): 98.25 % Forskolin and 100.53 % Forskolin and 100.03 % Forskolin
- Mean Diff. of pIC50, WT vs. P99A (C3aR P99^3.29A; Dunnett's multiple comparisons test, WT minus mutant): 0.364
- ΔpIC50 ± SE of Diff. (C3aR P99^3.29A; P99^3.29A relative to WT C3aR): -0.36 ± 0.06
- IC50 (C3aR P99^3.29A; P99^3.29A, dose-response plot, read-out: IC50): 6.44 nM
- pIC50 (Replicate) (C3aR P99^3.29A; P99^3.29A, individual replicates): 8.35 and 8.23 and 8.15
- pIC50 ± SEM (Mean) (C3aR P99^3.29A; P99^3.29A, mean of independent experiments): 8.18
- cAMP response (% Forskolin) (C3aR P99^3.29A; Log[C3a (M)] -7): 12.82 % Forskolin and 13.55 % Forskolin and 15.36 % Forskolin and 12.84 % Forskolin
- cAMP response (% Forskolin) (C3aR P99^3.29A; Log[C3a (M)] -8): 28.00 % Forskolin and 35.91 % Forskolin and 53.45 % Forskolin and 42.74 % Forskolin
- cAMP response (% Forskolin) (C3aR P99^3.29A; Log[C3a (M)] -9): 95.96 % Forskolin and 92.86 % Forskolin and 104.37 % Forskolin and 97.87 % Forskolin
- cAMP response (% Forskolin) (C3aR P99^3.29A; Log[C3a (M)] -10): 102.35 % Forskolin and 93.68 % Forskolin and 104.69 % Forskolin and 98.88 % Forskolin
- cAMP response (% Forskolin) (C3aR P99^3.29A; Log[C3a (M)] -11): 98.97 % Forskolin and 94.82 % Forskolin and 109.09 % Forskolin and 99.84 % Forskolin
- cAMP response (% Forskolin) (C3aR P99^3.29A; Log[C3a (M)] -12): 103.44 % Forskolin and 97.11 % Forskolin and 100.69 % Forskolin and 103.75 % Forskolin
- ΔpIC50 ± SE of Diff. (C3aR R340^5.42A; R340^5.42A relative to WT C3aR): -1.39 ± 0.06
- IC50 (C3aR R340^5.42A; R340^5.42A, dose-response plot, read-out: IC50): 47 nM
- pIC50 (Replicate) (C3aR R340^5.42A; R340^5.42A, individual replicates): 7.31 and 7.68 and 7.02 and 6.95
- pIC50 ± SEM (Mean) (C3aR R340^5.42A; R340^5.42A, mean of independent experiments): 7.21
- cAMP response (% Forskolin) (C3aR R340^5.42A; Log[C3a (M)] -7): 25.35 % Forskolin and 26.64 % Forskolin and 21.46 % Forskolin and 37.94 % Forskolin and 13.15 % Forskolin and 37.80 % Forskolin
- cAMP response (% Forskolin) (C3aR R340^5.42A; Log[C3a (M)] -8): 77.37 % Forskolin and 75.03 % Forskolin and 71.05 % Forskolin and 86.28 % Forskolin and 86.11 % Forskolin and 85.37 % Forskolin
- cAMP response (% Forskolin) (C3aR R340^5.42A; Log[C3a (M)] -9): 91.29 % Forskolin and 112.12 % Forskolin and 107.73 % Forskolin and 93.95 % Forskolin and 109.05 % Forskolin and 100.87 % Forskolin
- cAMP response (% Forskolin) (C3aR R340^5.42A; Log[C3a (M)] -10): 92.00 % Forskolin and 91.42 % Forskolin and 98.18 % Forskolin and 91.19 % Forskolin and 108.32 % Forskolin and 87.99 % Forskolin
- cAMP response (% Forskolin) (C3aR R340^5.42A; Log[C3a (M)] -11): 98.26 % Forskolin and 112.91 % Forskolin and 108.63 % Forskolin and 92.51 % Forskolin and 96.75 % Forskolin and 86.60 % Forskolin
- cAMP response (% Forskolin) (C3aR R340^5.42A; Log[C3a (M)] -12): 94.72 % Forskolin and 95.53 % Forskolin and 102.57 % Forskolin and 99.30 % Forskolin and 100.29 % Forskolin and 108.61 % Forskolin
